Laboratory results as given in article PMC10844744, “C9orf72-associated dipeptide protein repeats form A11-positive oligomers in amyotrophic lateral sclerosis and frontotemporal dementia” (The Journal of Biological Chemistry, 2024).

B1: glycine–alanine dipeptide protein repeat, 12 repeats (GA12) (peptide)
peptide: GAGAGAGAGAGAGAGAGAGAGAGA
notes: source: synthetic peptide (Scenic Biotech)
B2: glycine–arginine dipeptide protein repeat, 12 repeats (GR12) (peptide)
peptide: GRGRGRGRGRGRGRGRGRGRGRGR
notes: as for B1
B3: proline–arginine dipeptide protein repeat, 12 repeats (PR12) (peptide)
peptide: PRPRPRPRPRPRPRPRPRPRPRPR
notes: as for B1
B4: proline–arginine dipeptide protein repeat, 3 repeats (PR3) (peptide)
peptide: PRPRPR
notes: as for B1
B5: glycine–arginine dipeptide protein repeat, 3 repeats (GR3) (peptide)
peptide: GRGRGR
notes: as for B1
B6: proline–arginine dipeptide protein repeat, 6 repeats (PR6) (peptide)
peptide: PRPRPRPRPRPR
notes: as for B1
B7: glycine–alanine dipeptide protein repeat, 6 repeats (GA6) (peptide)
peptide: GAGAGAGAGAGA
notes: as for B1
B8: glycine–alanine dipeptide protein repeat, 3 repeats (GA3) (peptide)
peptide: GAGAGA
notes: as for B1
B9: glycine–arginine dipeptide protein repeat, 6 repeats (GR6) (peptide)
peptide: GRGRGRGRGRGR
notes: as for B1

Biological target: the molecule itself
Experiment: far-Western, overlay or dot blot; monomeric 12-repeat DPRs seeded with brain-derived DPRs at 1:70 M ratio (seed to monomer), orbital shaker, 37 °C, 72 h; oligomerization confirmed by dot blot

| Protein | binding result |
| --- | --- |
| B1 | binds |
| B2 | binds |
| B3 | binds |

Biological target: the molecule itself
Experiment: far-Western, overlay or dot blot; synthetic DPRs gently stirred in 1x PBS for 6 days, aliquots at days 1, 2, 4 and 6; 1 ul of 1 mg/ml dotted on nitrocellulose; oligomers read out with oligomer-specific antibody A11-19 (1:8000), fibrillar aggregates with OC (1:10,000)

| Protein | binding result |
| --- | --- |
| B4 | binds |
| B5 | binds |
| B6 | binds |
| B7 | binds |
| B8 | binds |
| B9 | binds |
